Test results published in publication PMC12990809.

Assays:
Test in all cases: pulldown
Conditions in all cases: 20 nM protein, 1.5 uM RNA pool; 20 mM HEPES pH 7.8, 70 mM KCl, 10 mM NaCl, 10% glycerol, 2 mM DTT, 0.1 ug/uL BSA; 30 min, 4 C
[1] = molecular target: T1, CBG15837 R479I (Caenorhabditis briggsae) (UniProt A8XMX3)
T1 sequence: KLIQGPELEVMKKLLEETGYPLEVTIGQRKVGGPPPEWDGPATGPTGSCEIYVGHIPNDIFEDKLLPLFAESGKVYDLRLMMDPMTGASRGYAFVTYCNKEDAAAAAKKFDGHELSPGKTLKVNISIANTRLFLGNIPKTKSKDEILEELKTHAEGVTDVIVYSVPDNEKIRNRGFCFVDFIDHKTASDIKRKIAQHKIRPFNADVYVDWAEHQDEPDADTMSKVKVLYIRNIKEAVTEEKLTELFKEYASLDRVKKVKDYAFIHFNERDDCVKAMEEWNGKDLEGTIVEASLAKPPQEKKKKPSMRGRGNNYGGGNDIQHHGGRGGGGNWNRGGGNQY

[2] = molecular target: T2, PK23225.1 P17S (Cannabis sativa) (UniProt A0A7J6EWR7)
T2 sequence: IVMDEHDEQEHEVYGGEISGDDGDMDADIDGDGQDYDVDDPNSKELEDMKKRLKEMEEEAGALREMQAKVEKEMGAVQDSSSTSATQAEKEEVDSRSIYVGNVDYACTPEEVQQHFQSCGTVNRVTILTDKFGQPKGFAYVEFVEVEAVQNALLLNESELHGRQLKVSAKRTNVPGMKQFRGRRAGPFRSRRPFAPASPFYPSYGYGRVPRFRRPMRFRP

[3] = molecular target: T3, rsp-2 (Caenorhabditis elegans) (UniProt Q23120)
T3 sequence: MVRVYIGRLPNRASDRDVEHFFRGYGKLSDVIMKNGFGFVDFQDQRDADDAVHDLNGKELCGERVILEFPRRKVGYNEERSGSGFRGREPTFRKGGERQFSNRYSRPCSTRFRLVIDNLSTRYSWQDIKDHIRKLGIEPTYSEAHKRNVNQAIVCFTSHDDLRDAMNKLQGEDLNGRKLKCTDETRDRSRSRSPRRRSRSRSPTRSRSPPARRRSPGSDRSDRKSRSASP

[4] = molecular target: T4, PK15181.1 (Cannabis sativa) (UniProt A0A7J6E558)
T4 sequence: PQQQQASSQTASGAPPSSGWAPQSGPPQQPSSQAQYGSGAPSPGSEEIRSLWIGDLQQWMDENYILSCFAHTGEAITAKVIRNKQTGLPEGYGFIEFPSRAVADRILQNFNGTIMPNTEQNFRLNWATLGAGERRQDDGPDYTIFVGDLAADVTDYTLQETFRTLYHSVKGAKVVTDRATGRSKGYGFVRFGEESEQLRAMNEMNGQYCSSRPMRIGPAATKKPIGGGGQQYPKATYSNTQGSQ

[5] = molecular target: T5, SCL30 (Arabidopsis thaliana) (UniProt Q8L3X8)
T5 sequence: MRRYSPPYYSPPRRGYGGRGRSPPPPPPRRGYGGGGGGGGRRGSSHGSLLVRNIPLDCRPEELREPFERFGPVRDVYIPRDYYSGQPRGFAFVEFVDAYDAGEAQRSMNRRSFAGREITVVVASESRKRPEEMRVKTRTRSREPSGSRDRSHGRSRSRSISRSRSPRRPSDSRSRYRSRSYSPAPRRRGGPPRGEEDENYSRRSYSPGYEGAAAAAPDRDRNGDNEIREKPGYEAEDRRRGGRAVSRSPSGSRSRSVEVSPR

[6] = molecular target: T6, PK27686.1 K290R (Cannabis sativa) (UniProt A0A7J6ICA3)
T6 sequence: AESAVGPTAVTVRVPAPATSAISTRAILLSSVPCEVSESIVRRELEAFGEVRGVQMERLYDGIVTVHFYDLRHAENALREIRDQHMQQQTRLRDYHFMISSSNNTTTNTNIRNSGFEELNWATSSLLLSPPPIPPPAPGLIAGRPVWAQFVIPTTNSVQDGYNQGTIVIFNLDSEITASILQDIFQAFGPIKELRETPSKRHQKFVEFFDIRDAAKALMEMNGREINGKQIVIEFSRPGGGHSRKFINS

[7] = tested on: T7, PK15111.1 (Cannabis sativa)
T7 sequence: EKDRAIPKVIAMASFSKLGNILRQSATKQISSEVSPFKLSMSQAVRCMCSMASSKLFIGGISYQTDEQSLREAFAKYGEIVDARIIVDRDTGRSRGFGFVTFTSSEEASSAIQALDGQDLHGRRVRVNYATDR

[8] = molecular target: T8, DDB_G0286331 (Dictyostelium discoideum) (UniProt Q54M41)
T8 sequence: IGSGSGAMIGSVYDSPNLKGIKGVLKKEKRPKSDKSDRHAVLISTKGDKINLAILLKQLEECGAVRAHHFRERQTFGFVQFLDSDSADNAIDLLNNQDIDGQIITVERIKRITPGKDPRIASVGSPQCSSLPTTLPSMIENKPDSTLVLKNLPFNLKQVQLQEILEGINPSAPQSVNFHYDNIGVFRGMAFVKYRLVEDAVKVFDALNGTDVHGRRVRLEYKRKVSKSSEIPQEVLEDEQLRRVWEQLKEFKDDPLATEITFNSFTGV

[9] = molecular target: T9, PK20300.1 (Cannabis sativa) (UniProt A0A803QWA0)
T9 sequence: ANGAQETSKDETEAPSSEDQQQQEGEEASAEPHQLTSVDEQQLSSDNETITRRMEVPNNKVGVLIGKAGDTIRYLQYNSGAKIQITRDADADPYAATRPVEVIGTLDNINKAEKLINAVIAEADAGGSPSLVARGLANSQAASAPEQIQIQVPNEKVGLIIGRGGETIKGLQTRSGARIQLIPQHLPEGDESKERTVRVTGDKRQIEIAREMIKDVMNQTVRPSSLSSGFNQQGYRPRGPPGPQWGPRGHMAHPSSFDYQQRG

MBNL2 (Homo sapiens) = molecular target: T10, MBNL2 (Homo sapiens) (UniProt Q5VZF2)
T10 sequence: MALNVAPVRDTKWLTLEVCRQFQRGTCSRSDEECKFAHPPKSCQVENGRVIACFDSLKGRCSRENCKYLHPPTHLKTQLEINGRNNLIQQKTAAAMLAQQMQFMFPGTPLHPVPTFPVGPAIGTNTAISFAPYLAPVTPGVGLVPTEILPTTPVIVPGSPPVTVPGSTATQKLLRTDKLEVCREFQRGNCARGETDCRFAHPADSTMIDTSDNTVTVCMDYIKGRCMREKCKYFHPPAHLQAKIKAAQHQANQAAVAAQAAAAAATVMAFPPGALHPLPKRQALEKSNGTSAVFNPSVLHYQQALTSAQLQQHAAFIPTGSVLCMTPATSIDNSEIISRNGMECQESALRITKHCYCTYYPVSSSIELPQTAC

Sequence: AAAAAUUU [RNAcompete motif RNCMPT00344]
- binding signal (z-score (mean of top ten 7-mers)) [1]: 9.1

Sequence: AAAAAGA [RNAcompete motif RNCMPT00370]
- binding signal (z-score (mean of top ten 7-mers)) [2]: 12

Sequence: GGAGGAG [RNAcompete motif RNCMPT00352]
- binding signal (z-score (mean of top ten 7-mers)) [3]: 9.21

Sequence: UUUUUU [RNAcompete motif RNCMPT00345]
- binding signal (z-score (mean of top ten 7-mers)) [4]: 9.71

Sequence: AGAAGA [RNAcompete motif RNCMPT00382]
- binding signal (z-score (mean of top ten 7-mers)) [5]: 7.94

Sequence: AAUUUU [RNAcompete motif RNCMPT00349]
- binding signal (z-score (mean of top ten 7-mers)) [6]: 14.6

Sequence: AAGUAGA [RNAcompete motif RNCMPT00368]
- binding signal (z-score (mean of top ten 7-mers)) [7]: 6.73

Sequence: AUAAAC [RNAcompete motif RNCMPT00351]
- binding signal (z-score (mean of top ten 7-mers)) [8]: 8.36

Sequence: AGCAUGA [RNAcompete motif RNCMPT00360]
- binding signal (z-score (mean of top ten 7-mers)) [9]: 11.4

Sequence: GCUUGC [RNAcompete motif RNCMPT00401]
- binding signal (z-score (mean of top ten 7-mers)) (MBNL2 (Homo sapiens)): 10.7
